± gives the uncertainty stated by the source.
Assay: self-splicing fitness, log relative to wild type (ln ratio); higher = more splicing; Tetrahymena group I intron in knt gene, E. coli kanamycin selection, DiMSum; sequences stand for … in CUCUCU…GGAGGGAAAAGUUAUCAGGCAUGCACCUGGUAGCUAGUCUUUAAACCAAUAGAUUGCAUCGGUUUAAAAGGCAAGACCGUCAAAUUGCGGGAAAGGGGUCAACAGCCGUUCAGUACCAAGUCUCAGGGGAAACUUUGAGAUGGCCUUGCAAAGGGUAUGGUAAUAAGCUGACGGACAUGGUCCUAACCACGCAGCCAAGUCCUAAGUCAACAGAUCUUCUGUUGAUAUGGAUGCAGUUCACAGACUAAAUGUCGGUCGGGGAAGAUGUAUUCUUCUCAUAAGAUAUAGUCGGACCUCUCCUUAAUGGGAGCUAGCGGAUGAAGUGAUGCAACACUGGAGCCGCUGGGAACUAAUUUGUAUGCGAAAGUAUAUUGAUUAGUUUUGGAGUACUCGUGGUCG
Method in brief: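 The eight P1ex-region nucleotides of an intron in the knt kanamycin-resistance gene on pET-22b(+) were all randomised and the library put into E. coli BL21(DE3). Six replicate transformations were grown overnight at 37°C or 30°C on LB agar with or without 25 μg/mL kanamycin, together with 100 μg/mL carbenicillin, 50 μM IPTG and 0.2% rhamnose. Colonies were pooled and amplicon-sequenced on an Illumina HiSeq 2500. Fitness from DiMSum is the error-weighted combination of wild-type-normalised replicate fold changes, kanamycin over none.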

| Sequence | self-splicing fitness (ln) (30 °C) | self-splicing fitness (ln) (37 °C) |
| --- | --- | --- |
| UCGGAGCAAUAUUACGACUA | -1.22 ± 0.37 | -1.83 ± 0.38 |
| UCGGAGCAAUAUUACGAGCU | -2.89 ± 0.27 | – |
| UCGGAGCAAUAUUACGAUAC | -3.5 ± 0.35 | -0.757 ± 0.33 |
| UCGGAGCAAUAUUACGCUAA | -2.18 ± 0.35 | – |
| UCGGAGCAAUAUUACGGAAA | – | -2.64 ± 0.36 |
| UCGGAGCAAUAUUACGGACA | – | -1.38 ± 0.37 |
| UCGGAGCAAUAUUACGGUCU | -0.916 ± 0.37 | – |
| UCGGAGCAAUAUUACGGUUA | -2.38 ± 0.47 | -2.3 ± 0.28 |
| UCGGAGCAAUAUUACGUAGG | -1.78 ± 0.13 | -0.619 ± 0.15 |
| UCGGAGCAAUAUUACGUCGG | -1.7 ± 0.24 | -2.04 ± 0.28 |
| UCGGAGCAAUAUUACGUGAU | – | -3.24 ± 0.47 |
| UCGGAGCAAUAUUACGUGCC | -3.26 ± 0.34 | -2.53 ± 0.45 |
| UCGGAGCAAUAUUACGUGGG | -3.49 ± 0.32 | -3.22 ± 0.28 |
| UCGGAGCAAUAUUACGUGUA | – | -1.29 ± 0.2 |
| UCGGAGCAAUAUUACGUUAG | – | -2.12 ± 0.22 |
| UCGUAGCAAUAUUACGAAAG | -3.1 ± 0.17 | -2.16 ± 0.23 |
| UCGUAGCAAUAUUACGACAC | -3.54 ± 0.34 | -2.7 ± 0.4 |
| UCGUAGCAAUAUUACGACAG | – | -1.5 ± 0.29 |
| UCGUAGCAAUAUUACGACGA | -3.15 ± 0.3 | -0.365 ± 0.11 |
| UCGUAGCAAUAUUACGACUC | – | -1.34 ± 0.31 |
| UCGUAGCAAUAUUACGAGAG | -4.38 ± 0.46 | -1.89 ± 0.25 |
| UCGUAGCAAUAUUACGAGUA | -2.71 ± 0.18 | -1.21 ± 0.13 |
| UCGUAGCAAUAUUACGAUCA | -0.922 ± 0.19 | -0.511 ± 0.17 |
| UCGUAGCAAUAUUACGAUUG | -2.6 ± 0.15 | -2.92 ± 0.28 |
| UCGUAGCAAUAUUACGCAGU | -3.54 ± 0.39 | -2.51 ± 0.28 |
| UCGUAGCAAUAUUACGCCCU | -1 ± 0.25 | -0.827 ± 0.34 |
| UCGUAGCAAUAUUACGGACU | -3.21 ± 0.31 | -0.974 ± 0.21 |

| Sequence | self-splicing fitness (ln) (30 °C) | self-splicing fitness (ln) (37 °C) |
| --- | --- | --- |
| UCGUAGCAAUAUUACGGCUU | -2.85 ± 0.46 | -1.64 ± 0.33 |
| UCGUAGCAAUAUUACGGUAG | -4.09 ± 0.36 | -3.06 ± 0.4 |
| UCGUAGCAAUAUUACGGUGU | -3.09 ± 0.13 | -2.7 ± 0.19 |
| UCGUAGCAAUAUUACGUAAU | -2.47 ± 0.14 | -1.78 ± 0.17 |
| UCGUAGCAAUAUUACGUGCU | -2.98 ± 0.26 | -2.83 ± 0.48 |
| UCGUAGCAAUAUUACGUGGA | -2.39 ± 0.16 | -2.36 ± 0.13 |
| UCGUAGCAAUAUUACGUUUA | -1.5 ± 0.085 | -0.934 ± 0.08 |
| UCGUAGCAAUAUUACGUUUC | -3.71 ± 0.24 | -2.31 ± 0.21 |
| UCUAAGCAAUAUUACGAACA | -1.21 ± 0.28 | -1.2 ± 0.2 |
| UCUAAGCAAUAUUACGAAUA | – | -1.52 ± 0.32 |
| UCUAAGCAAUAUUACGACAG | -1.58 ± 0.1 | -0.799 ± 0.15 |
| UCUAAGCAAUAUUACGACUC | -3.61 ± 0.48 | -2.43 ± 0.42 |
| UCUAAGCAAUAUUACGACUU | -3.9 ± 0.28 | -3.44 ± 0.37 |
| UCUAAGCAAUAUUACGAGAA | -3.17 ± 0.5 | -1.69 ± 0.39 |
| UCUAAGCAAUAUUACGAGCC | -2.34 ± 0.34 | – |
| UCUAAGCAAUAUUACGAGCG | -1.19 ± 0.1 | -0.708 ± 0.12 |
| UCUAAGCAAUAUUACGAUCG | -1.06 ± 0.099 | -0.234 ± 0.1 |
| UCUAAGCAAUAUUACGCAAC | -3.54 ± 0.17 | -1.32 ± 0.2 |
| UCUAAGCAAUAUUACGCAAU | – | -3.12 ± 0.43 |
| UCUAAGCAAUAUUACGCAGA | – | -0.999 ± 0.21 |
| UCUAAGCAAUAUUACGGACA | -2.39 ± 0.18 | -1.18 ± 0.17 |
| UCUAAGCAAUAUUACGGACU | -3.51 ± 0.28 | -2.84 ± 0.27 |
| UCUAAGCAAUAUUACGGCAG | -1.35 ± 0.13 | -0.508 ± 0.14 |
| UCUAAGCAAUAUUACGGCCG | -1.36 ± 0.34 | 0.444 ± 0.3 |
| UCUAAGCAAUAUUACGGCUC | – | -1.67 ± 0.35 |
| UCUAAGCAAUAUUACGGGUA | -1.64 ± 0.11 | -0.58 ± 0.1 |

Reference: the supplement of paper PMC7877785
